Experimental data as given in paper PMC11357854.

Assays:
[1] = molecular target: PDK1 catalytic domain, 50-359 (UniProt O15530); assay: AlphaScreen GST-PRK2 / His-PDK1; settings: reference: wild type; sites T958
[2] = molecular target: PDK1 1-556 (UniProt O15530); assay: AlphaScreen GST-PRK2 / His-PDK1; settings: reference: wild type; sites T958

Row | binding against the reference [1] | binding against the reference [2] | Substance
1 | stronger |  | PRK2 (PKN2) catalytic domain, 643-984 (from UniProt Q16513) T958A
2 | stronger | stronger | PRK2 (PKN2) 1-984 (from UniProt Q16513) T958A
